# Data: US20180369203
# Biological target: GST-tagged active human MEK1, Q02750
protein,measurement,value
GST-tagged inactive human ERK1 (protein) MAAAAAQGGGGGEPRRTEGVGPGVPGEVEMVKGQPFDVGPRYTQLQYIGEGAYGMVSSAYDHVRKTRVAIKKISPFEHQTYCQRTLREIQILLRFRHENVIGIRDILRASTLEAMRDVYIVQDLMETDLYKLLKSQQLSNDHICYFLYQILRGLKYIHSANVLHRDLKPSNLLINTTCDLKICDFGLARIADPEHDHTGFLTEYVATRWYRAPEIMLNSKGYTKSIDIWSVGCILAEMLSNRPIFPGKHYLDQLNHILGILGSPSQEDLNCIINMKARNYLQSLPSKTKVAWAKLFPKSDSKALDLLDRMLTFNPNKRITVEEALAHPYLEQYYDPTDEPVAEEPFTFAMELDDLPKERLKELIFQETARFQPGVLEAP,"in vitro HSF1 Ser326 phosphorylation by GST-MEK1 in the presence of inactive GST-ERK1, detected by immunoblotting",recombinant ERK1 proteins impeded in vitro HSF1 Ser326 phosphorylation by recombinant MEK1 proteins
